Where a chain is given by its changes, count along the chain named.
B1: 1.34.32-1 (antibody, human IgG1, kappa)
heavy: QVQLVQSGAEVKKPGASVRVSCKASGYNIRDYFIHWWRQAPGQGLQWVGWINPKTGQPNNPRQFQGRVTLTRHASWDFDTFSFYMDLKALRSDDTAVYFCARQRTDYWDFDVWGSGTQVTVSSASTKGPSVFPLAPSSKSTSGGTAALGCLVKDYFPEPVTVSWNSGALTSGVHTFPAVLQSSGLYSLSSVVTVPSSSLGTQTYICNVNHKPSNTKVDKKVEPKSCDKTHTCPPCPAPELLAGPDVFLFPPKPKDTLMISRTPEVTCVVVDVSHEDPEVKFNWYVDGVEVHNAKTKPREEQYNSTYRVVSVLTVLHQDWLNGKEYKCKVSNKALPLPEEKTISKAKGQPREPQVYTLPPSREEMTKNQVSLTCLVKGFYPSDIAVEWESNGQPENNYKTTPPVLDSDGSFFLYSKLTVDKSRWQQGNVFSCSVLHEALHSHYTQKSLSLSPGK
light: DIQMTQSPSSLSASVGDTVTITCQANGYLNWYQQRRGKAPKLLIYDGSKLERGVPSRFSGRRWGQEYTLTISSLQPEDIATYFCQVYEFVTPGTRLDLKRTVAAPSVFIFPPSDEQLKSGTASVVCLLNNFYPREAKVQWKVDNALQSGNSQESVTEQDSKDSTYSLSSTLTLSKADYEKHKVYACEVTHQGLSSPVTKSFNRGEC
B2: 1.22.1-1 (antibody, human IgG1, kappa)
heavy: QVQLLQSGAAVTKPGASVRVSCEASGYNIRDYFIHWWRQAPGQGLQWVGWINPKTGQPNNPRQFQGRVSLTRHASTFSFYMDLKALRSDDTAVYFCARQRSDYWDFDVWGSGTQVTVSSASTKGPSVFPLAPSSKSTSGGTAALGCLVKDYFPEPVTVSWNSGALTSGVHTFPAVLQSSGLYSLSSVVTVPSSSLGTQTYICNVNHKPSNTKVDKKVEPKSCDKTHTCPPCPAPELLAGPDVFLFPPKPKDTLMISRTPEVTCVVVDVSHEDPEVKFNWYVDGVEVHNAKTKPREEQYNSTYRVVSVLTVLHQDWLNGKEYKCKVSNKALPLPEEKTISKAKGQPREPQVYTLPPSREEMTKNQVSLTCLVKGFYPSDIAVEWESNGQPENNYKTTPPVLDSDGSFFLYSKLTVDKSRWQQGNVFSCSVLHEALHSHYTQKSLSLSPGK
light: B1 light with T68N, S72N, S73N, T91V
B3: 1.2.2-1 (antibody, human IgG1)
heavy: B1 heavy with V5L, K23E, T69S, T105S, Q118M
VL: DIQMTQSPSSLSASVGDTVTITCQANGYLNWYQQKPGKAPKLLIYDGSKLERGVPSRFSGRRWGQEYNLTINNLQPEDIATYFCQVYEFVVPGTKVDIK
B4: 1.35.32-1 (antibody, human IgG1, kappa)
heavy: B1 heavy with I34M, L70M, K88S, A89R, V97T, S115Q, Q118M
light: B1 light
B5: 1.35.1-1 (antibody, human IgG1, kappa)
heavy: B1 heavy with I34M, L70M, K88S, A89R, V97T, S115Q, Q118M
light: B1 light with T68N, S72N, S73N, T91V
B6: 1.35.34-1 (antibody, human IgG1, kappa)
heavy: B1 heavy with I34M, L70M, K88S, A89R, V97T, S115Q, Q118M
light: B1 light with K49N, L98I
B7: 1.36.34-1 (antibody, human IgG1, kappa)
heavy: B1 heavy with I34M, L70M, F83A, K88S, A89R, V97T, S115Q, Q118M
light: B1 light with K49N, L98I
B8: 1.35.31-1 (antibody, human IgG1, kappa)
heavy: B1 heavy with I34M, L70M, K88S, A89R, V97T, S115Q, Q118M
light: B1 light with T91V, R95N
B9: 1.35.33-1 (antibody, human IgG1, kappa)
heavy: B1 heavy with I34M, L70M, K88S, A89R, V97T, S115Q, Q118M
light: B1 light with K49N, T91V, R95N, L98I
B10: 1.36.32-1 (antibody, human IgG1, kappa)
heavy: B1 heavy with I34M, L70M, F83A, K88S, A89R, V97T, S115Q, Q118M
light: B1 light
B11: 1.34.33-1 (antibody, human IgG1, kappa)
heavy: B1 heavy
light: B1 light with K49N, T91V, R95N, L98I
B12: 1.34.34-1 (antibody, human IgG1, kappa)
heavy: B1 heavy
light: B1 light with K49N, L98I
B13: 1v2-1 (antibody, human IgG1, kappa)
heavy: B1 heavy with V5L, E10A, K12T, K23E, T69S, F81Y, T105S
light: B1 light with T68N, S72N, S73N, T91V
B14: 1.1.2-1 (antibody, human IgG1)
heavy: B1 heavy with V5L, E10A, K12T, K23E, T69S, T105S
VL: B3 VL
B15: 1.31.35-1 (antibody, human IgG1, kappa, V domains shown)
VH: QVQLVQSGAEVTKPGASVRVSCEASGYNIRDYFIHWWRQAPGQGLQWVGWINPKTGQPNNPRQFQGRVSLTRHASWDFDTFSFYMDLKALRSDDTATYFCARQRSDYWDFDVWGSGTQVTVSS
VL: DIQMTQSPSSLSASVGDRVTITCQANGYLNWYQQKPGKAPKLLIYDGSNLETGVPSRFSGSRWGQEYTLTISSLQPEDIATYFCQVYEFVGPGTNLDIKR
B16: 1.32.35-1 (antibody, human IgG1, kappa, V domains shown)
VH: B15 VH with T97V, S105T
VL: B15 VL
B17: 1.35.35-1 (antibody, human IgG1, kappa, V domains shown)
VH: B15 VH with T12K, E23K, I34M, S69T, L70M, K88S, A89R, S105T, S115Q, Q118M
VL: B15 VL
B18: 1.34.35-1 (antibody, human IgG1, kappa, V domains shown)
VH: B15 VH with T12K, E23K, S69T, T97V, S105T
VL: B15 VL
B19: 1.33.35-1 (antibody, human IgG1, kappa, V domains shown)
VH: B15 VH with T12K, E23K, S69T
VL: B15 VL
B20: 1.36.35-1 (antibody, human IgG1, kappa, V domains shown)
VH: QVQLVQSGAEVKKPGASVRVSCKASGYNIRDYFMHWWRQAPGQGLQWVGWINPKTGQPNNPRQFQGRVTMTRHASWDFDTFSAYMDLSRLRSDDTATYFCARQRTDYWDFDVWGQGTMVTVSS
VL: B15 VL

Columns and labels:
gp120 SHIV SF162 P3 = gp120 SHIV SF162 P3 (SHIV SF162 P3); assay: single-point ELISA at EC50 conc. of A-1
gp120 CAAN = gp120 CAAN (HIV (CAAN)); assay: single-point ELISA at EC50 conc. of A-1
gp120 Bal = gp120 Bal (HIV (Bal)); assay: single-point ELISA at EC50 conc. of A-1
BSA = BSA (UniProt P02769 25-607); assay: single-point ELISA, BSA control

Binder	ELISA A450 (gp120 SHIV SF162 P3)	ELISA A450 (gp120 CAAN)	ELISA A450 (gp120 Bal)	ELISA A450 (BSA)
B1	0.69 A450	0.97 A450	0.93 A450	0.06 A450
B2	0.78 A450	0.87 A450	1.03 A450	0.06 A450
B3	0.97 A450	0.8 A450	0.91 A450	0.06 A450
B4	0.58 A450	1.01 A450	0.96 A450	0.06 A450
B5	0.8 A450	0.87 A450	0.84 A450	0.07 A450
B6	0.58 A450	0.85 A450	1 A450	0.06 A450
B7	0.15 A450	0.43 A450	1.01 A450	0.07 A450
B8	0.68 A450	0.99 A450	1.05 A450	0.07 A450
B9	0.65 A450	0.91 A450	0.9 A450	0.06 A450
B10	0.18 A450	0.5 A450	0.96 A450	0.07 A450
B11	0.82 A450	1.04 A450	1.1 A450	0.06 A450
B12	0.7 A450	0.88 A450	0.89 A450	0.06 A450
B13	1.29 A450	1 A450	1.03 A450	0.08 A450
B14	1.01 A450	0.93 A450	0.95 A450	0.06 A450
B15	0.61 A450	0.77 A450	0.9 A450	0.06 A450
B16	0.5 A450	0.59 A450	0.89 A450	0.06 A450
B17	0.42 A450	0.67 A450	0.88 A450	0.06 A450
B18	0.56 A450	0.77 A450	0.94 A450	0.06 A450
B19	0.71 A450	0.81 A450	1.03 A450	0.07 A450
B20	0.16 A450	0.36 A450	0.89 A450	0.06 A450

— patent publication US20240034774A1 (Gilead, published 2024)
